# Results as given in patent publication US7063946B2, “Methods, reagents, kits and apparatus for protein function analysis” (Meso Scale Technologies, LLC., priority 2001, dated 2006).
# B1: 4419252: IMAGE clone protein: PLCγ (protein)
# chain: MAGAASPCANGCGPGAPSDAEVLHLCRSLEVGTVMTLFYSKKSQRPERKTFQVKLETRQITWSRGADKIEGAIDIREIKEIRPGKTSRDFDRYQEDPAFRPDQSHCFVILYGMEFRLKTLSLQATSEDEVNMWIKGLTWLMEDTLQAPTPLQIERWLRKQFYSVDRNREDRISAKDLKNMLSQVNYRVPNMRFLRERLTDLEQRSGDITYGQFAQLYRSLMYSAQKTMDLPFLEASTLRAGERPELCRVSLPEFQQFLLDYQGELWAVDRLQVQEFMLSFLRDPLREIEEPYFFLDEFVTFLFSKENSVWNSQLDAVCPDTMNNPLSHYWISSSHNTYLTGDQFSSESSLEAYARCLRMGCRCIELDCWDGPDGMPVIYHGHTLTTKIKFSDVLHTIKEHAFVASEYPVILSIEDHCSIAQQRNMAQYFKKVLGDTLLTKPVEISADGLPSPNQLKRKILIKHKKLAEGSAYEEVPTSMMYSENDISNSIKNGILYLEDPVNHEWYPHYFVLTSSKIYYSEETSSDQGNEDEEEPKEVSSSTELHSNEKWFHGKLGAGRDGRHIAERLLTEYCIETGAPDGSFLVRESETFVGDYTLSFWRNGKVQHCRIHSRQDAGTPKFFLTDNLVFDSLYDLITHYQQVPLRCNEFEMRLSEPVPQTNAHESKEWYHASLTRAQAEHMLMRVPRDGAFLVRKRNEPNSYAISFRAEGKIKHCRVQQEGQTVMLGNSEFDSLVDLISYYEKHPLYRKMKLRYPINEEALEKIGTAEPDYGALYEGRNPGFYVEANPMPTFKCAVKALFDYKAQREDELTFIKSAIIQNVEKQEGGWWRGDYGGKKQLWFPSNYVEEMVNPVALEPEREHLDENSPLGDLLRGVLDVPACQIAIRPEGKNNRLFVFSISMASVAHWSLDVAADSQEELQDWVKKIREVAQTADARLTEGKIMERRKKIALELSELVVYCRPVPFDEEKIGTERACYRDMSSFPETKAEKYVNKAKGKKFLQYNRLQLSRIYPKGQRLDSSNYDPLPMWICGSQLVALNFQTPDKPMQMNQALFMTGRHCGYVLQPSTMRDEAFDPFDKSSLRGLEPCAISIEVLGARHLPKNGRGIVCPFVEIEVAGAEYDSTKQKTEFVVDNGLNPVWPAKPFHFQISNPEFAFLRFVVYEEDMFSDQNFLAQATFPVKGLKTGYRAVPLKNNYSEDLELASLLIKIDIFPAKENGDLSPFSGTSLRERGSDASGQLFHGRAREGSFESRYQQPFEDFRISQEHLADHFDSRERRAPRRTRVNGDNRL
# B2: 4237375: IMAGE clone protein: βTRCP2 (protein)
# chain: MEPDSVIEDKTIELMCSVPRSLWLGCANLVESMCALSCLQSMPSVRCLQISNGTSSVIVSRKRPSEGNYQKEKDLCIKYFDQWSESDQVEFVEHLISRMCHYQHGHINSYLKPMLQRDFITALPEQGLDHIAENILSYLDARSLCAAELVCKEWQRVISEGMLWKKLIERMVRTDPLWKGLSERRGWDQYLFKNRPTDGPPNSFYRSLYPKIIQDIETIESNWRCGRHNLQRIQCRSENSKGVYCLQYDDEKIISGLRDNSIKIWDKTSLECLKVLTGHTGSVLCLQYDERVIVTGSSDSTVRVWDVNTGEVLNTLIHHNEAVLHLRFSNGLMVTCSKDRSIAVWDMASATDITLRRVLVGHRAAVNVVDFDDKYIVSASGDRTIKVWSTSTCEFVRTLNGHKRGIACLQYRDRLVVSGSSDNTIRLWDIECGACLRVLEGHEELVRCIRFDNKRIVSGAYDGKIKVWDLQAALDPRAPASTLCLRTLVEHSGRVFRLQFDEFQIISSSHDDTILIWDFLNVPPSAQNETRSPSRTYTYISR
# Key:
# [1] = target: T1, EGFR-pY1068 (SEQ ID NO: 7) (Homo sapiens, UniProt P00533); experiment: Single-well 4-spot assay for multiple peptide-protein interactions; assay type: binding; settings: 4-spot plate
# T1 construct: phosphotyrosine at Tyr1068 (chemical modification); purchased New England Peptide, Fitchburg Mass; host or cells: chemical synthesis
# Text: (§1) Four phosphopeptides and their cognate binding proteins (Table 14) were selected for an integrated assay of multiple peptide-protein interaction in 4-spot Multi-Array plates. The IkBa-24pp peptide and its binding protein, βTRCP, are described in Example 10. […] These phosphotyrosine containing peptides are recognized by different adaptor or effecter proteins of the receptor tyrosine kinase signaling pathway.
# (§2) These four peptides were coupled to BSA carrier protein through cystine residue. After purification on PD-10 gel filtration columns, the peptide-BSA conjugates were then deposited on the assay domains of a 4-spot multi-array IPR plate (i.e., in one of the four exposed regions of working electrode defined by the dielectric layer) with an automated micro-dispensing system (Bio-Dot Dispenser, Bio-Dot, Irvine Calif.). […] These plates are dried then used or stored under desiccated conditions. A few hours prior to usage the plates were rehydrated and blocked with 3% BSA in PBS. […] The in vitro translated and biotin-labeled proteins were then assayed in the 4-spot multi-array IPR plates under conditions described in Example 10.
# [2] = target: T2, EGFR-pY1148 (SEQ ID NO: 9) (Homo sapiens, UniProt P00533); experiment: as above; assay type: binding; settings: 4-spot plate
# T2 construct: phosphotyrosine at Tyr1148 (chemical modification); purchased New England Peptide, Fitchburg Mass; host or cells: chemical synthesis
# Text: as §1, §2
# [3] = system: pooled phosphopeptide:BSA conjugates (Pools A-D); experiment: Coded multiplex phosphopeptide binding assay with pooled peptide:BSA conjugates on 4 spots; settings: for ECL signal, spot A: Pool A, EGFR-pTyr1148, IkBa-24ppC, Myc-p58Tp62S; for ECL signal, spot B: Pool B, EGFR-pTyr992, EGFR-pTyr1148, Smad3C; for ECL signal, spot C: Pool C, EGFR-pTyr1068, IkBa-24ppC, Smad3C; for ECL signal, spot D: Pool D, EGFR-pTyr992, EGFR-pTyr1068, Myc-p58Tp62S
# Text: To prepare the Multi-Spot IPR plates, in this example we made use of pools of the peptide:BSA conjugates to coat each of 4 spots per well in a 96 well plate. To achieve this we made the following pools; • Pool A; EGFR-pTyr1148, IkBa-24ppC, Myc-p58Tp62S. • Pool B; EGFR-pTyr992, EGFR-pTyr1148, Smad3C. • Pool C; EGFR-pTyr1068, IkBa-24ppC, Smad3C. • Pool D; EGFR-pTyr992, EGFR-pTyr1068, Myc-p58Tp62S.
# This combination of the various peptides results in any single peptide being present in two pools. Each of these four pools is then spotted on to a unique spot in a 4 spot array. In this way any single binding protein with specificity for only one of the peptides would bind to two spots; the identity of the two spots would allow the identification of the peptide involved in the binding reaction.
# Typically approximately 120 fmole of peptide:BSA conjugate in 0.25 μl was deposited on each spot of a 4-spot multi-array IPR plates using a BioDot Dispenser (Bio-Dot Inc., vIrvine Calif.). At this stage, the plates were dried then used or stored under desiccated condition. A few hours prior to usage, the plates were rehydrated and blocked with 3% BSA, in PBS.
# To test the system the following EST clones IMAGE # 3491843, 4237375, 4398016, 4419252, 3872466, 3907115 were obtained. These clones express the following genes βTRCP1, βTRCP2, Grb2, PLCγ, CBP and Shc1, respectively. […] These DNAs were used to produce proteins as described in the Materials and Methods. Proteins were transferred to a well of the 4 spot peptide-coated and BSA blocked ECL plates. The binding assay (using Sulfo-TAG labeled streptavidin as a detection agent) was carried our according to the procedures described in Example 11.
# [4] = target: T3, c-Myc peptide [SEQ ID No. 4] (Homo sapiens, UniProt P01106); experiment: Phosphopeptide binding assay, peptide-BSA coated IPR plate
# T3 construct: phosphothreonine (T58) and phosphoserine (S62) (chemical modification); purchased New England Peptide, Fitchburg Mass; host or cells: chemical synthesis
# Experimental: A phosphopeptide derived from the IkBa degradation motif (SEQ ID NO: 1) and a phosphopeptide derived from c-Myc (SEQ ID NO: 4) were chemically synthesized (New England Peptide, Fitchburg Mass.) with the following sequences respectively:
# To prepare IPR plates for use in the assay, approximately 2.4 pmol BSA, 1.2 pmole IκBα-24pp peptide-BSA conjugate or 1.2 pmole of Myc-p58Tp62S peptide-BSA conjugate in 2.5 μl were deposited on the carbon working electrode surface in a single well of a 96-well plate. At this stage, the plates were dried then used or stored under desiccated condition. A few hours prior to usage, the plates were rehydrated and blocked with 3% BSA, in PBS.
# Two βTRCP genes, βTRCP1 and βTRCP2, are present in the human genome on […], respectively. The coding sequence of these two genes shares over 90% identity and several full-length cDNAs of which are available as EST clones from Incyte (Palo Alto, Calif.) IMAGE #3491843 and 4237375. Also included were three other non specific EST clones as controls (Incyte, Palo alto, Calif.). […] These DNAs were used to produce the βTRCP protein and proteins encoded by the other DNAs as described in the Example 7. Proteins were transferred into wells of the peptide-coated and BSA-blocked IPR plates. […] The ECL signals were measured using an imaging plate reader (IPR).
# T3 sequence (P01106 with tags, fused parts or gaps limits assumed): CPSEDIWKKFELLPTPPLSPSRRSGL
Molecule,"ECL signal, spot 3 EGFR-pY1068 [1]","ECL signal, spot 2 EGFR-pY1148 [2]",Code (pattern of positive spots) [3],Peptide determined from code [3],"ECL signal, spot A [3]","ECL signal, spot B [3]","ECL signal, spot C [3]","ECL signal, spot D [3]","Average ECL signal, c-Myc peptide [SEQ ID No. 4] [4]"
B1,1485,110,"B, C, D",EGFR-pTyr992 & EGFR-pTyr1068,239,2783,1550,3388,
B2,24,35,"A, C",IkBa-24ppC,7791,105,8615,74,896
